Here are results for 94 variants from the supplement of paper PMC10567573.

B1: TRIM29 (parent)
chain: FAEKGELRKSIFSESRKPTVSIME
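Note: lentivirally expressed fusions sorted by FACS into six bins by GFP to DsRed ratio, PSI derived from sequencing read proportions per bin multiplied by bin number.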

The variants in the series derive from B1. The series can be described thus: protein stability index of a GFP-peptide fusion (GPS, HEK-293T) (PSI 1-6); higher = more stable. As to conditions: c terminus: a fixed tail appended.
As for FAEKGELRKSIFSESRKPTVSNME, the protein stability index was determined as 1.74. Take FAEKGELRKSIFSESRKPTVSAME: the protein stability index was determined as 2. FAEKGELRKSIFSESRKPTVSCME: the protein stability index was found to be 2.68.

Regarding FAEKGELRKSIFSESRKPTVSDME, the protein stability index is 1.99. With FAEKGELRKSIFSESRKPTVSEME, the protein stability index stood at 2.06. The same measure for FAEKGELRKSIFSESRKPTVSPME: 2.48; for FAEKGELRKSIFSESRKPTVSGME: 1.85. Regarding FAEKGELRKSIFSESRKPTVSYME, the protein stability index turned out to be 1.38.

For FAEKGELRKSIFSESRKPTVSFME, the protein stability index was found to be 1.79. The same measure for FAEKGELRKSIFSESRKPTVSSME: 1.78; for FAEKGELRKSIFSESRKPTVSWME: 1.67.

In the case of FAEKGELRKSIFSESRKPTVSVME, the protein stability index was 1.86. With FAEKGELRKSIFSESRKPTVSKME the figure was 2.31; with FAEKGELRKSIFSESRKPTVSMME, 1.49; with FAEKGELRKSIFSESRKPTVSTME, 2.04. In the case of FAEKGELRKSIFSESRKPTVSQME, the protein stability index turned out to be 1.55. The same measure for FAEKGELRKSIFSESRKPTVSRME: 1.34; for FAEKGELRKSIFSESRKPTVSLME: 2.17; for FAEKGELRKSIFSESRKPTVSHME: 3.02. FAEKGELRKSIFSESRKPTASIME: the protein stability index was 1.42. The same measure for FAEKGELRKSIFSESRKPTCSIME: 2.13; for FAEKGELRKSIFSESRKPTHSIME: 2.64. The same measure for FAEKGELRKSIFSESRKPTFSIME: 1.97; for FAEKGELRKSIFSESRKPTESIME: 2.79; for FAEKGELRKSIFSESRKPTNSIME: 1.27. Regarding FAEKGELRKSIFSESRKPTSSIME, the protein stability index was 2.34. For the variant FAEKGELRKSIFSESRKPTDSIME, the protein stability index turned out to be 2.02. The same measure for FAEKGELRKSIFSESRKPTYSIME: 1.67; for FAEKGELRKSIFSESRKPTQSIME: 2.2; for FAEKGELRKSIFSESRKPTISIME: 2.12. As to FAEKGELRKSIFSESRKPTTSIME, the protein stability index worked out at 1.77. The same measure for FAEKGELRKSIFSESRKPTWSIME: 2.58; for FAEKGELRKSIFSESRKPTLSIME: 1.23. Regarding FAEKGELRKSIFSESRKPTGSIME, the protein stability index was 1.7. With FAEKGELRKSIFSESRKPTKSIME the figure was 2.08; with FAEKGELRKSIFSESRKPTRSIME, 1.68. The same measure for FAEKGELRKSIFSESRKPTPSIME: 1.89; for FAEKGELRKSIFSESRKPTMSIME: 1.92; for FAEKGELRKSIFSESRKMTVSIME: 2.1.

Regarding FAEKGELRKSIFSESRKWTVSIME, the protein stability index worked out at 2.83. The same measure for FAEKGELRKSIFSESRKYTVSIME: 2.79; for FAEKGELRKSIFSESRKVTVSIME: 2.5; for FAEKGELRKSIFSESRKNTVSIME: 2.59.

Regarding FAEKGELRKSIFSESRKGTVSIME, the protein stability index is 2.59. Turning to FAEKGELRKSIFSESRKLTVSIME, the protein stability index was 1.98. Turning to FAEKGELRKSIFSESRKETVSIME, the protein stability index was 2.35.

With FAEKGELRKSIFSESRKATVSIME, the protein stability index came out at 2.01.

Take FAEKGELRKSIFSESRKITVSIME: the protein stability index is 2.06. The same measure for FAEKGELRKSIFSESRKKTVSIME: 1.41; for FAEKGELRKSIFSESRKFTVSIME: 2.31; for FAEKGELRKSIFSESRKRTVSIME: 2.32.

Consider FAEKGELRKSIFSESRKHTVSIME, for which the protein stability index was determined as 1.94. The same measure for FAEKGELRKSIFSESRKCTVSIME: 2.21; for FAEKGELRKSIFSESRKQTVSIME: 1.34. In the case of FAEKGELRKSIFSESRKTTVSIME, the protein stability index came out at 1.85. With FAEKGELRKSIFSESRKSTVSIME the figure was 1.46. Take FAEKGELRKSIFSESRKDTVSIME: the protein stability index is 2.32. With FAEKGELRKSIFSESRQPTVSIME the figure was 1.68; with FAEKGELRKSIFSESRWPTVSIME, 2.22; with FAEKGELRKSIFSESRCPTVSIME, 1.28. The same measure for FAEKGELRKSIFSESRYPTVSIME: 2.23; for FAEKGELRKSIFSESRDPTVSIME: 1.65; for FAEKGELRKSIFSESRPPTVSIME: 1.54. The same measure for FAEKGELRKSIFSESRGPTVSIME: 1.99; for FAEKGELRKSIFSESRNPTVSIME: 1.39; for FAEKGELRKSIFSESRTPTVSIME: 2.12. With FAEKGELRKSIFSESRHPTVSIME, the protein stability index turned out to be 2.11. With FAEKGELRKSIFSESREPTVSIME the figure was 1.67; with FAEKGELRKSIFSESRRPTVSIME, 1.53; with FAEKGELRKSIFSESRFPTVSIME, 2.05. With FAEKGELRKSIFSESRVPTVSIME the figure was 2.46; with FAEKGELRKSIFSESRLPTVSIME, 2.86; with FAEKGELRKSIFSESRIPTVSIME, 2.

In the case of FAEKGELRKSIFSESRMPTVSIME, the protein stability index stood at 1.33.

Turning to FAEKGELRKSIFSESRAPTVSIME, the protein stability index was determined as 2.43. With FAEKGELRKSIFSESRSPTVSIME, the protein stability index was determined as 1.82. The same measure for FAEKGELRKSIFSEYRKPTVSIME: 2.04; for FAEKGELRKSIFSESRKPFVSIME: 1.59.

Turning to FAEKGELRKSIFSESRKPHVSIME, the protein stability index was found to be 1.75. FAEKGELRKSIFSESRKPLVSIME: the protein stability index was found to be 1.6. With FAEKGELRKSIFSESRKPSVSIME the figure was 2.74.

Take FAEKGELRKSIFSESRKPQVSIME: the protein stability index was found to be 2.26. The same measure for FAEKGELRKSIFSESRKPNVSIME: 1.72. On to FAEKGELRKSIFSESRKPMVSIME, for which the protein stability index was 2.36.

On to FAEKGELRKSIFSESRKPWVSIME, for which the protein stability index was 2.94.

Turning to FAEKGELRKSIFSESRKPRVSIME, the protein stability index was 2.02. With FAEKGELRKSIFSESRKPPVSIME, the protein stability index worked out at 2.39.

With FAEKGELRKSIFSESRKPYVSIME, the protein stability index came out at 2.

Regarding FAEKGELRKSIFSESRKPVVSIME, the protein stability index was 2.56. With FAEKGELRKSIFSESRKPAVSIME the figure was 3. For FAEKGELRKSIFSESRKPIVSIME, the protein stability index was determined as 1.17. With FAEKGELRKSIFSESRKPEVSIME the figure was 1.8; with FAEKGELRKSIFSESRKPCVSIME, 2.39; with FAEKGELRKSIFSESRKPKVSIME, 2.58.
